Experimental findings from the supplement of paper PMC12042874 are described below.

± gives the uncertainty stated by the source.

The series can be described thus: amyloid nucleation score (Sup35N fusion, yeast selection) (log enrichment); library NNK2; higher = more nucleation; inactive = no reads after selection. The procedure, abridged: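 The nucleation score is the DiMSum log enrichment of output over input reads, centred on the mode score of non-aggregating sequences. Only sequences with 100 or more input reads were scored, using Illumina sequencing of input and output plasmid inserts. Psi-negative yeast expressing Sup35N fused to peptides of 20 random codons were induced 24 hours with 100 μM copper sulfate and grown 7 days at 30°C on medium lacking adenine and uracil.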

As to KMCIAKKSWEGQLVILYMSA, the amyloid nucleation score was -0.354 ± 0.48. The value for SRCGIWPWLRHDKVD was 0.853 ± 0.18; that for RLPTGSQNY was -0.281 ± 0.38. For LERECVENDGLGWSRLEYVR the value was 0.42 ± 0.33; for VLSEYGDTNYKIQGRATCGK, 0.928 ± 0.6; for SYLCDPLRETTYSPKYLRST, 0.667 ± 0.38.

In the case of GCKLPYE, the amyloid nucleation score is -1.39 ± 0.75. In the case of NGILRRCMSKLSRAWPDGLE, the amyloid nucleation score stood at 10.71 ± 0.046. YVYKCLQSQFFNALVTMISL: the amyloid nucleation score entry was “inactive”. For the substance PSWAELRVAYLLCGSGQPG, the amyloid nucleation score was 1.43 ± 0.19. For the substance SSRYSVIVVYMMGAPSLVGQ, the amyloid nucleation score entry was “inactive”. In turn, IRWAFWSRYGSWAKLSLRIV came in with an amyloid nucleation score of -0.995 ± 0.56.

Substance YFTWQHLRNSRMWV registered an amyloid nucleation score of 3.34 ± 0.11.

Regarding VSDLKVAQNCANKVIKLRYR, the amyloid nucleation score is 5.01 ± 0.072. On to RMNEACTWTLIVYFYRSLL, for which the amyloid nucleation score is 1.5 ± 0.12. In turn, KWIRFWVKDAFRVGRCHIWG registered an amyloid nucleation score of 0.038 ± 0.5. For IYLVSNLMGYKCFLSNHLAR the value was 0.151 ± 0.32; for IVMYRLRLLQDATN, 0.259 ± 0.65; for SNCGVLD, “inactive”.

The substance WSTLGIDVSSCT had an amyloid nucleation score of -1.52 ± 0.54.

In turn, DMFRWNSYCSIVMLYCYAYD registered an amyloid nucleation score of 4.62 ± 0.063. For SNLEFNLE, the amyloid nucleation score was -0.747 ± 0.37.

LLVKTNYVCGALTNGRMNGT displayed an amyloid nucleation score of 2.12 ± 0.081. DNEMRYGDRSSVFI came in with an amyloid nucleation score of 1.32 ± 0.24. In turn, SYSLRFWYIPVADFWLL returned an amyloid nucleation score of -0.938 ± 0.36. As for WVLCRRNLLGH, the amyloid nucleation score result was “inactive”. With NNFEI, the amyloid nucleation score is -0.672 ± 0.6.

In turn, SWGNLWKSYCAK yielded an amyloid nucleation score of -0.55 ± 0.49. For the substance PIKVDEVCGCRRRWFGDWDS, the amyloid nucleation score is -0.146 ± 1.

The substance YYNKNLFCLFSVLEYKTTFL showed an amyloid nucleation score of 4.09 ± 0.056. For YFVEYSW, the amyloid nucleation score came out at 0.542 ± 0.47. The substance GKMTPLLVNQTVSYCMLSSM returned an amyloid nucleation score of 6.273 ± 0.035. YISNYPNVRLALDPTTCAGM gave an amyloid nucleation score of -0.452 ± 0.48. In turn, FMVDASLNQRMGINQFVCS came in with an amyloid nucleation score of -1.34 ± 0.76. For YRSFSLCMCFYLYRSDDTLC the value was -1.69 ± 1.1.

MYVRYANDFVLLIMQVYRCF: the amyloid nucleation score was -0.488 ± 1. On to MFFSFNVFDFGPL, for which the amyloid nucleation score was determined as 4.698 ± 0.036. ARKKALGGNNLEVVLFLFSC returned an amyloid nucleation score of 4.93 ± 0.098. For the substance MCRRANGRVLGP, the amyloid nucleation score was 5.562 ± 0.042.

FFAGKCGIMTSLRDLSVAFG came in with an amyloid nucleation score of -0.071 ± 0.65. Turning to YIGEFGFILIPLRSFSPIPC, the amyloid nucleation score entry is “inactive”. On to FLDQWDMCP, for which the amyloid nucleation score amounted to 0.619 ± 0.81. For the substance YGVFRSESRPTCLKSLDRMK, the amyloid nucleation score turned out to be 0.575 ± 0.34. In turn, GKFQMS registered an amyloid nucleation score of -0.244 ± 0.56. The substance SDLRRCM gave an amyloid nucleation score of 0.277 ± 0.21.

As for LNVWRLFRRWWEWRRDCEFA, the amyloid nucleation score was 0.435 ± 0.37. Take SFNYP: the amyloid nucleation score entry is “inactive”. As for LYQRNRLWGRKAWNTLWFSL, the amyloid nucleation score is -0.506 ± 0.42. In turn, QGGFMIFDRITGGLRVMNGL returned an amyloid nucleation score of 0.263 ± 0.23. For the substance LSKRIDSRDMLGSGNHRCLL, the amyloid nucleation score is -0.655 ± 0.64.

On to LFWDLSY, for which the amyloid nucleation score is -0.959 ± 0.36. With KELDLDFRCFQYYNVVVVPQ, the amyloid nucleation score came to 2.33 ± 0.091. For YFRSYLLHTLLG the value was 0.479 ± 0.45. Turning to STNCFRAFTHYPMYIGCVVM, the amyloid nucleation score was -0.159 ± 0.8. PLDTYLWAYLLPWWSLCTSI: the amyloid nucleation score result is “inactive”. LKLGFRIQLPLLSYGYPFLW yielded an amyloid nucleation score of -1.29 ± 0.39.

Take LKLTVPKDRRKKMKGRVALI: the amyloid nucleation score was -0.064 ± 0.76. The substance CSCMDRFL displayed an amyloid nucleation score of 1.41 ± 0.15. In the case of KSCAVFYSSNYVSGSNYLFF, the amyloid nucleation score came out at 6.369 ± 0.047. As to LLLLTHYEAITR, the amyloid nucleation score worked out at 0.305 ± 0.43.

Turning to ISFRFLAFCFFYDKVSLEQK, the amyloid nucleation score entry is “inactive”. For SALHLYGFFLRFFERSSVIL the value was -0.608 ± 0.76; for FGLDLVFISFQARKCFVVMD, “inactive”; for LGWQPNMWLISFISVSY, -0.81 ± 0.64. On to VNNNLLNASLAMVSM, for which the amyloid nucleation score entry was “inactive”. For TSPRCYRFMIQSMYGLRTRV the value was 0.883 ± 0.17; for NLLRNRARWL, -1.08 ± 0.44; for RWNGSKLRY, 0.009 ± 0.76. The value for SCMYIFLFLNSNIQLIVWDV was -0.137 ± 1.1; that for AHSATINA was -0.113 ± 0.44; that for SDSDLPGFRREGNRIRVWLG was 0.312 ± 0.49.

In turn, FRFLDNELQNRGRRMYQLGY gave an amyloid nucleation score of -0.465 ± 1. IDRVVSTRSSGFVCGEAFCG: the amyloid nucleation score was -0.365 ± 0.63. For NNKYWWDVLYYNSTLLARVN the value was -0.225 ± 0.48. Consider NSVDSRWGDQLARICIHGMT, for which the amyloid nucleation score was 0.141 ± 0.42. Consider LESMRRY, for which the amyloid nucleation score was 1.42 ± 0.27. In turn, VLGMYVFDRG showed an amyloid nucleation score of 0.543 ± 0.46. Substance GKGNAFVLNFSYGYRCVYHG had an amyloid nucleation score of 6.398 ± 0.04. Turning to YLSTFCGVFIYLVNIPLGRA, the amyloid nucleation score was 4.48 ± 0.058.

The substance TLNSRWVNNSPVEM displayed an amyloid nucleation score of -0.12 ± 1. Consider KGFIIFSFSSAIR, for which the amyloid nucleation score was found to be 2.46 ± 0.1. For RVRLTRSSSCPNSVSFCGVA, the amyloid nucleation score was 1.29 ± 0.24. The value for DTLFLTCPSLHH was 0.811 ± 0.58; that for SFALGLQRNVNCKDD was -0.06 ± 0.54. In the case of ITPVRTVRMLSRMFNMLSQL, the amyloid nucleation score worked out at 4.83 ± 0.056. For RVSQDSVAGRRSLFMKFVGG the value was 6.022 ± 0.042. For the substance VSSVRCNRVAYNPASGRGRR, the amyloid nucleation score was -0.124 ± 0.55. Consider ETKKLYDRAARERRCCRNHY, for which the amyloid nucleation score amounted to 0.078 ± 0.3. For VVDCMCSGLHWVQVGILSQP the value was 1.19 ± 0.39. In the case of CCSISTDLCDKYFVTFCLLS, the amyloid nucleation score result is “inactive”.

KPLCS registered an amyloid nucleation score of -0.58 ± 0.55. With RYLCSRVVMSYTCARTPETG, the amyloid nucleation score was 0.43 ± 0.35.

For the substance HTTASATPYFAGQV, the amyloid nucleation score amounted to 0.042 ± 0.38.

Take LSPRNPYAFVSAISDRIM: the amyloid nucleation score was -0.97 ± 0.63. In the case of AIEYPYRCYRDVAWLRALAS, the amyloid nucleation score was 0.582 ± 0.28. ATTYAYTGAQLTWFRWMVVQ had an amyloid nucleation score of 0.832 ± 0.31. Turning to LSQGLIKRMYQHMCMKCVGF, the amyloid nucleation score was -0.08 ± 0.35. Substance QIPNILVGNDMICVKKVLNW gave an amyloid nucleation score of 2.97 ± 0.051.

On to VFCYRSDMSGTSSGGGYQM, for which the amyloid nucleation score is -0.178 ± 0.29. For LFYWLITENASNQTTMSVRE the value was -0.384 ± 0.54; for MLLLGTTSQDHHMTLGKYAG, 0.808 ± 0.74; for FLFMAIYSILLASIYVAFLS, 2.02 ± 0.2. LQDAHHSVVCVRQSCYERLG had an amyloid nucleation score of -0.187 ± 0.65.
